The source of these data is patent US20170037124A1 (Regeneron, published 2017).

For orientation: koff means the first-order rate constant of dissociation. As a reminder, the t½ is the time in which the quantity being followed falls by half.

Experiment [1] deals with T1, human ANGPTL8 peptide (hANGPTL8 peptide, SEQ ID NO: 337) (human).
T1 construct: also called N-terminal region ANGPTL8 peptide
T1 peptide: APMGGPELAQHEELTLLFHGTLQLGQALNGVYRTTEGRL
As to the kind of experiment: SPR, captured mAb, 500 nM peptide, 25C. The procedure: (§1) The assay utilized a format where ANGPTL8 antibodies were captured on the sensor surface and peptides were injected over the antibody surface. Peptides from the N-terminal coiled-coil region of human ANGPTL3 (hANGPTL3 peptide, SEQ ID NO: 338) and human ANGPTL4 (hANGPTL4 peptide, SEQ ID NO: 339) were also included as controls. Also included was a control antibody (H4H268P from US2011/0159015A1) that binds to the ANGPTL4 peptide and a negative isotype control antibody. All binding studies were performed in 10 mM HEPES pH 7.4, 150 mM NaCl, 3 mM EDTA, and 0.05% v/v Surfactant Tween-20 (HBS-ET running buffer) at 25° C. The HCA sensor surface was derivatized via amine coupling to a monoclonal mouse anti-human Fc antibody (GE, # BR-1008-39), and to this surface was captured approximately 1000 RU of each ANGPTL8 antibody or control antibody. Peptide stock solutions were diluted in HBS-ET running buffer to 500 nM and injected over the antibody-captured surfaces for 4 minutes at a flow rate of 30 μL/minute followed by the dissociation of bound peptide in HBS-ET running buffer for 10 minutes.
(§2) Dissociative half-lives (t½) were calculated from kd as: […]
(SPR reads the build-up and loss of mass on a sensor chip optically.)

In experiment [2] the target is T2, peptide from the N-terminal coiled-coil region of human ANGPTL3 (hANGPTL3 peptide, SEQ ID NO: 338) (human).
T2 construct: also called hANGPTL3 shift peptide
T2 peptide: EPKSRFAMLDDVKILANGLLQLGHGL
As to the kind of experiment: SPR, captured mAb, 500 nM peptide, 25C. How it is done: as §1, §2

In experiment [3] the target is T3, peptide from the N-terminal coiled-coil region of human ANGPTL4 (hANGPTL4 peptide, SEQ ID NO: 339) (human).
T3 peptide: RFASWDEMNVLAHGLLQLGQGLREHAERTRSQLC
As to the kind of experiment: SPR, captured mAb, 500 nM peptide, 25C. The procedure:
as §1, §2

Experiment [4] has as its target T4, anti-mFc (AMC) Octet biosensor, blank.
T4 construct: Sensor without captured protein, used as blank; also called Blank AMC Sensor
As to the kind of experiment: BLI Octet, blank AMC sensor, 100 nM mAb, 25C. How it is done: (§3) Binding of ANGPTL8 antibodies to human and monkey ANGPTL8 proteins was investigated using Bio-layer Interferometry with an Octet HTX biosensor platform (ForteBio, A Division of Pall Life Sciences). All experiments were performed at 25° C. in 10 mM HEPES pH 7.4, 150 mM NaCl, 0.05% v/v Surfactant Tween-20, and 1 mg/ml BSA with the reaction multiwell plate agitated at 1000 rpm. Approximately 1.6 nm of human ANGPTL8 produced with a C-terminal mouse IgG2a Fc tag (hANGPTL8-mFc; SEQ ID NO: 340) or cynomolgus monkey ANGPTL8 produced with a C-terminal mouse IgG2a Fc tag (MfANGPTL8-mFc; SEQ ID NO: 341) was captured onto anti-mFc (AMC) Octet biosensors by submerging the sensors into wells containing 10 μg/mL of each protein for 4 minutes. Under the same conditions a negative control protein with the same mFc tag (hLDLR-mFc) was also coupled to the AMC sensor. All four sensors, […] and one blank, were then submerged into wells containing 100 nM of different ANGPTL8 monoclonal antibodies or an isotype control for 4 minutes.
A general note: BLI is a label-free optical method that tracks binding on a fibre tip over time.

Experiment [5] deals with T5, human ANGPTL8 expressed with C-terminal mouse IgG2a Fc tag (hANGPTL8-mFc; SEQ ID NO: 340) (human).
T5 construct: also called Angiopoietin-like protein 8
T5 chain: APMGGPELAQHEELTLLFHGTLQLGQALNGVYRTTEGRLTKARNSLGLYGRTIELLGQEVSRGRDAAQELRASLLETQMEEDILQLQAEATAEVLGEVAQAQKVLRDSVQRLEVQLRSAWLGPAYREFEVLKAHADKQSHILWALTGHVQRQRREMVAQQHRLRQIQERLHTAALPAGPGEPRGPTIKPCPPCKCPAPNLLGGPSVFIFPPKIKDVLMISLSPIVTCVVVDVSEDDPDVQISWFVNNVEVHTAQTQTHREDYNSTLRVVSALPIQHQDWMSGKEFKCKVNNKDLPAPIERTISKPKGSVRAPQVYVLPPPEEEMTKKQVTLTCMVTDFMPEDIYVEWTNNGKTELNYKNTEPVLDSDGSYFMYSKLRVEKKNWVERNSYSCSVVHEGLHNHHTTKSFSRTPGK
As to the kind of experiment: BLI Octet, captured antigen, 100 nM mAb, 25C. The procedure: as §3

For experiment [6], the target named is T6, monkey ANGPTL8 expressed with C-terminal mouse IgG2a Fc tag (MfANGPTL8-mFc; SEQ ID NO: 341) (cynomolgus monkey).
T6 construct: also called cynomolgus monkey ANGPTL8
T6 chain: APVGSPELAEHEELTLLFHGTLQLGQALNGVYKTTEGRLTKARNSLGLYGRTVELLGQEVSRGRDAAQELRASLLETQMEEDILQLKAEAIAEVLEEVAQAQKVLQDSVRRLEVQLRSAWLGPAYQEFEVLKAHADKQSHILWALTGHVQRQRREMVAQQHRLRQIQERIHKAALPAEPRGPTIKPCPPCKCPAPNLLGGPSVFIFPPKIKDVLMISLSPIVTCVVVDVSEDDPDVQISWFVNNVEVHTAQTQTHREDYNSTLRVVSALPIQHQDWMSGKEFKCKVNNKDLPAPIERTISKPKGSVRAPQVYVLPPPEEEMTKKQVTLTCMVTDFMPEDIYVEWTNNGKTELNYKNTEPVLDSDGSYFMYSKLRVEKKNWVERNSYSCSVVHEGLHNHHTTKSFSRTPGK
As to the kind of experiment: BLI Octet, captured antigen, 100 nM mAb, 25C. How it is done:
as §3

The target of experiment [7] is T7, negative control protein with the same mFc tag (hLDLR-mFc) (human; mouse, UniProt P01130 22-788, limits assumed).
T7 construct: also called Irrelevant control; not shown: mouse IgG2a Fc tag (same mFc tag as hANGPTL8-mFc)
As to the kind of experiment: BLI Octet, captured antigen, 100 nM mAb, 25C. The procedure:
as §3

For experiment [8], the target named is T5, human ANGPTL8 expressed with C-terminal …. As to the kind of experiment: BLI Octet, captured antigen, 100 nM mAb, 25C; background 0.03 nm. The procedure:
as §3

Where only a bound is given, the exact number is not on record here.

T7 sequence (P01130 22-788 limits assumed): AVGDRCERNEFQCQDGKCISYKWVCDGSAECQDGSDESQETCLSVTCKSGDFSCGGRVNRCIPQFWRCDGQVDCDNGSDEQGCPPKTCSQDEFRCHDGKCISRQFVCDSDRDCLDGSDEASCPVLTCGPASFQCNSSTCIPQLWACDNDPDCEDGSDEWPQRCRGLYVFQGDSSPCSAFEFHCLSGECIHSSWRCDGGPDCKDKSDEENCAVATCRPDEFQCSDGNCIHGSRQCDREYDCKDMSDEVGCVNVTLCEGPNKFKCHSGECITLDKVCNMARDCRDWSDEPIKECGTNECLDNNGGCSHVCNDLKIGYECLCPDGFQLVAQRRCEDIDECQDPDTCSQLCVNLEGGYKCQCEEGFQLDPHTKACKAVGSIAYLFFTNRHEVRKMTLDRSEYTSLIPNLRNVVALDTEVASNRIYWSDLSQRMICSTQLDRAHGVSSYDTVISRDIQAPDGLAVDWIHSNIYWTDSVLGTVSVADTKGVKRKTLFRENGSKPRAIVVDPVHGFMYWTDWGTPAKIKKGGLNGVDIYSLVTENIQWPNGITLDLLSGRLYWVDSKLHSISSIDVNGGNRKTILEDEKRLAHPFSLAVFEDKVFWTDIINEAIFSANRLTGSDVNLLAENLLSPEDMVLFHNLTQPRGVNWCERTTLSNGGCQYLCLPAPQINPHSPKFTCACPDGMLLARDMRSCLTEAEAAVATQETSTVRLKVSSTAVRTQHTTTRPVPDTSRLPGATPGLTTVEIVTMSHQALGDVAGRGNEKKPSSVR

B1: H4H15321P (antibody, human IgG4, V domains shown)
VH: EVQLVESGGGLVQPGGSLRLSCAASGFTFSSYAMSWVRQAPGKGLEWVSAITGSGGRTYYADSVKGRFTISRDNAKNTLYLQMNSLRAEDTAVYYCAKNFPFDYWGQGTLVTVSS
VL: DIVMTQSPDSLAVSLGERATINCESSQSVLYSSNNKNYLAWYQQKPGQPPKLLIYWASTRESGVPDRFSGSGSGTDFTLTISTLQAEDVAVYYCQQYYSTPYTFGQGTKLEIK
notes: H4H prefix: human IgG4 Fc
Turning to B1, in experiment [1], the “500 nM hANGPTL8 peptide Bound (RU)” value turned out to be 61 RU, the dissociation rate constant (koff) turned out to be 8.29e-05 s⁻¹ and the t½ is 2.32 h. Besides, in experiment [2], the “500 nM hANGPTL3 peptide Bound (RU)” value is 0 RU and the binding result was “no binding (tested: <9 RU at 500 nM peptide)”. In experiment [3], the “500 nM hAngPTL4 peptide Bound (RU)” value stood at 0 RU and the binding result is listed as “no binding (tested: <9 RU at 500 nM peptide)”. In addition, in experiment [4], the “mAb Binding Response (nm)” value was determined as 0 nm. In addition, the “mAb Binding Response (nm)” value in experiment [5] was determined as 0.36 nm. The “mAb Binding Response (nm)” value in experiment [6] turned out to be 0.51 nm. For the same molecule, the “mAb Binding Response (nm)” value in experiment [7] was found to be 0.01 nm. Further, in experiment [8], the “binding signal, fold above background” value is no less than 10 fold.

B2: H4H15343P (antibody, human IgG4, V domains shown)
VH: QVQLVESGGGVVQPGRSLRLSCAASGFTFSSYGMHWVRQAPGKGLEWVAVISYAGSNKYYADSVKGRFTISRDNSKNTLYLQMNGLRAEDTAVYYCAKDPYGDYEGVLDYWGQGTLVTVSS
VL: DIQMTQSPSSLSASVGDRVTITCQASQDISNYLNWYQQKPGKAPKLLIYDASNLETGVPSRFSGSGSGTDFTFTISSLQPEDIATYYCQQYDHLPITFGQGTRLEIK
notes: H4H prefix: human IgG4 Fc
B2: the “500 nM hANGPTL8 peptide Bound (RU)” value in experiment [1] was 0 RU. Moreover, the binding result in experiment [1], in experiment [2] and in experiment [3] was “no binding (tested: <9 RU at 500 nM peptide)” each time. Besides, in experiment [2], the “500 nM hANGPTL3 peptide Bound (RU)” value stood at 0 RU. The “500 nM hAngPTL4 peptide Bound (RU)” value in experiment [3] was found to be 0 RU. Further, the “mAb Binding Response (nm)” value was 0.01 nm in experiment [4], 0.17 nm in experiment [5], 0.2 nm in experiment [6] and -0.01 nm in experiment [7].

B3: H4H15334P (antibody, human IgG4, V domains shown)
VH: QVQLQESGPGLVKPSQTLSLTCTVSGGSINSGGYYWNWIRQHPGKGLEWIGYIYYSGSTYFNPSLKSRVTISIDTSKNQFSLKLSSVTAADTAVYYCAREGIYAFDYWGQGTLVTVSS
VL: DIQMTQSPSSLSASVGDRVTITCRASQGIRNDLGWYQQKPGKAPKRLIYSASSLQSGVPSRFGGSGSGTEFTLTISSLQPEDFATYYCLQHNSYPWTFGQGTKVEIK
notes: H4H prefix: human IgG4 Fc
Regarding B3, the “500 nM hANGPTL8 peptide Bound (RU)” value in experiment [1] worked out at 0 RU. Also, the binding result in experiment [1], in experiment [2] and in experiment [3] was “no binding (tested: <9 RU at 500 nM peptide)” throughout. For the same molecule, the “500 nM hANGPTL3 peptide Bound (RU)” value in experiment [2] was 0 RU. Also, the “500 nM hAngPTL4 peptide Bound (RU)” value in experiment [3] is 1 RU. Further, the “mAb Binding Response (nm)” value in experiment [4] came out at 0.03 nm; in experiment [5], 0.05 nm; in experiment [6], 0.01 nm; in experiment [7], 0 nm.

B4: H4H15369P2 (antibody, human IgG4, V domains shown)
VH: EVQLVESGGGLVQPGGSLRLSCVGTGFTFSNYAMSWVRQAPGKGLEWVSGISGRSSGTFYADSVKGRFTISRDNSQNTLYLQMNSLGAEDTAVYYCAKVSRYNWDYVPFDFWGQGTLVTVSS
VL: not shown
notes: H4H prefix: human IgG4 Fc
As to B4, the “500 nM hANGPTL8 peptide Bound (RU)” value in experiment [1] came to 0 RU. For the same molecule, the binding result in experiment [1], in experiment [2] and in experiment [3] was “no binding (tested: <9 RU at 500 nM peptide)” each time. The “500 nM hANGPTL3 peptide Bound (RU)” value in experiment [2] amounted to 0 RU. Besides, in experiment [3], the “500 nM hAngPTL4 peptide Bound (RU)” value is 0 RU. Besides, the “mAb Binding Response (nm)” value is 0.01 nm in experiment [4], 0.14 nm in experiment [5], 0.17 nm in experiment [6] and 0 nm in experiment [7].

B5: H4H15346P (antibody, human IgG4, V domains shown)
VH: EVQLVESGGGLVQPGGSLRLSCAASGFTFSNYAMSWVRQAPGKGLEWVSTISDTGGSTYYADSVKGRFALSRDNSRNTLYLQMNSLRAEDTAVYYCAKEGPPDYWGQGTLVTVSS
VL: EIVLTQSPATLSLSPGERATLSCRTSQSVSIYLAWYQQKPGQAPRLLIYDASKRATGIPARFSGRGSGTDFTLTISSLEPEDFAVYYCQQRSNWPLTFGQGTRLEIK
notes: H4H prefix: human IgG4 Fc
As for B5, in experiment [1], the “500 nM hANGPTL8 peptide Bound (RU)” value amounted to 0 RU. Moreover, the binding result in experiment [1], in experiment [2] and in experiment [3] was “no binding (tested: <9 RU at 500 nM peptide)” in each case. Also, the “500 nM hANGPTL3 peptide Bound (RU)” value in experiment [2] amounted to 0 RU. Also, in experiment [3], the “500 nM hAngPTL4 peptide Bound (RU)” value is 0 RU. Moreover, the “mAb Binding Response (nm)” value is -0.01 nm in experiment [4], 0.07 nm in experiment [5], 0.01 nm in experiment [6] and 0 nm in experiment [7].

B6: H4H15362P2 (antibody, human IgG4, V domains shown)
VH: QVQLVESGGGVVQPGRSLRLSCAASGFTFSSYGMHWVRQAPGKGLEWVAVIWYDGSNKYYADSVKGRFTISRDNSKNTLYLQMNSLRAEDTAVYYCARDWVRFLEWFPHFDYWGQGTLVTVSS
VL: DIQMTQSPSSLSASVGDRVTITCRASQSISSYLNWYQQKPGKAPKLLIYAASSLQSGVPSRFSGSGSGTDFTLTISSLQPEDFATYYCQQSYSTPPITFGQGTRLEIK
notes: H4H prefix: human IgG4 Fc
For the molecule B6, the “500 nM hANGPTL8 peptide Bound (RU)” value in experiment [1] is 0 RU. Besides, the binding result in experiment [1], in experiment [2] and in experiment [3] was “no binding (tested: <9 RU at 500 nM peptide)” throughout. Also, the “500 nM hANGPTL3 peptide Bound (RU)” value in experiment [2] is 0 RU. Further, the “500 nM hAngPTL4 peptide Bound (RU)” value in experiment [3] turned out to be 0 RU. In addition, the “mAb Binding Response (nm)” value in experiment [4] was determined as 0.01 nm; in experiment [5], 0.39 nm; in experiment [6] it was 0.36 nm. Also, the “binding signal, fold above background” value in experiment [8] is no less than 10 fold.
